Source: article PMC8119897

Tests used:
[1] = molecular target: Fructose-1,6-bisphosphate aldolase FBA^P of Bacillus methanolicus MGA3 (encoded on plasmid pBM19) (Bacillus methanolicus MGA3); test: crystal structure; FBA^P crystallised by sitting-drop vapor diffusion at 8°C; reservoir 20% PEG 4000, 0.2 M imidazole/malate buffer pH 6; molecular replacement with PDB 3Q94
[2] = molecular target: Fructose-1,6-bisphosphate aldolase FBA^C of Bacillus methanolicus MGA3 (chromosomally encoded) (Bacillus methanolicus MGA3); test: crystal structure; FBA^C crystallised by sitting-drop vapor diffusion at 20°C; reservoir 0.1 M sodium acetate trihydrate pH 4.5, 2.0 M ammonium sulfate; molecular replacement with PDB 3Q94

stoichiometry N [1] | stoichiometry N [2] | Substance
4 |  | Fructose-1,6-bisphosphate aldolase FBA^P of Bacillus methanolicus MGA3 (encoded on plasmid pBM19) (enzyme)
 | 4 | Fructose-1,6-bisphosphate aldolase FBA^C of Bacillus methanolicus MGA3 (chromosomally encoded) (enzyme)
